Tests used:
TRAF6 = TRAF6 (UniProt P70196); experiment: anti-TRAF6 IP, TAX1BP1 immunoblot; conditions: reference: wild type; sites S593,S624
TRAF2 = TRAF2 (UniProt P39429); experiment: anti-TRAF2 IP, TAX1BP1 immunoblot; conditions: reference: wild type; sites S593,S624
Chain of UniProt P39429 (P39429 whole entry, looked up): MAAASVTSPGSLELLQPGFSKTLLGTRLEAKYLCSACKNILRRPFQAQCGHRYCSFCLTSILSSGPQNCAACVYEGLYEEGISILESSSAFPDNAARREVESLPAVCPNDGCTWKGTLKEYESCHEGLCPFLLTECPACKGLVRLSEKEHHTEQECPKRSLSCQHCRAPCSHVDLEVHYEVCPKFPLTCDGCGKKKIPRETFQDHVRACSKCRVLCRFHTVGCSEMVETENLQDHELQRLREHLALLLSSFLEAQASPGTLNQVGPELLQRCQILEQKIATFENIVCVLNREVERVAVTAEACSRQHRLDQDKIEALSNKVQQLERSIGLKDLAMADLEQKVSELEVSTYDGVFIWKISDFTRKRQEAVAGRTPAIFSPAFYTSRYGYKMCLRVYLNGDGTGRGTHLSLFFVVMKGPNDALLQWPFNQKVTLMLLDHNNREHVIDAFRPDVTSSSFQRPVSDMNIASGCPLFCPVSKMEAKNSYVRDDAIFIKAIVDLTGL

Chain of UniProt P70196 (P70196 whole entry, looked up): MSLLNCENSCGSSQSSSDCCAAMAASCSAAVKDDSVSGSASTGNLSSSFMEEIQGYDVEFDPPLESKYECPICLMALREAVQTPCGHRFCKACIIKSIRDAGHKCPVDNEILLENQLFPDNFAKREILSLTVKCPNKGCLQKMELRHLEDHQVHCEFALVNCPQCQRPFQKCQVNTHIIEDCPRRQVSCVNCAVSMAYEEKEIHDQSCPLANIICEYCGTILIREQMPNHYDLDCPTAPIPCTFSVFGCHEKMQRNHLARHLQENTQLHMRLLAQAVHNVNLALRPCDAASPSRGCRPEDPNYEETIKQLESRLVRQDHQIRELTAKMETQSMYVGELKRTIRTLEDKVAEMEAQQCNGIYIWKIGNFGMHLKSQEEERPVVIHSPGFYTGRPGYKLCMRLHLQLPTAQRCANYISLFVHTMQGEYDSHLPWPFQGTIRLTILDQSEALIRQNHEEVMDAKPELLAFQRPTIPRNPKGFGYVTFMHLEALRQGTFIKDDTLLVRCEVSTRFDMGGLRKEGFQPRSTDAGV

binding against the reference (TRAF6): lost
binding against the reference (TRAF2): lost
Substance: TAX1BP1 (Flag-tagged, amino acids 1–747) 1-747 (from UniProt Q86VP1-2) S593A, S624A
